Reference: patent US20230057847A1, “GLP2 RECEPTOR AGONISTS AND METHODS OF USE” (The Scripps Research Institute, priority 2019, published 2023)
Bridges are numbered along the chain shown (N, C = ends). Where no end group is shown, it is not given here. [ ]: non-standard residue; d: D form. Nle = CCCC[C@H](N)C(=O)O; Nva = CCC[C@H](N)C(=O)O; L5A = not defined here; A1 = not defined here; K1 = not defined here; K5 = not defined here; Aib = CC(C)(N)C(=O)O

Assays:
[1] = system: mouse model of environmental enteric dysfunction (EED); experiment: Weaning undernutrition mouse model of environmental enteric dysfunction (EED); type: in vivo, mice; details: animals weaned to CD and to RBD diet, vs untreated
Protocol: A weaning undernutrition model was used to assess the ability of GLP2-2G-10Nle-1K-EX4-K5 to treat environmental enteric dysfunction (EED). All dams were placed on an isocaloric Northeast Brazil (Regional Basic Diet—RBD), which was moderately deficient in protein, fat and minerals when their pups were 10 days old. At weaning (3 weeks of age), pups were placed on either a standard control diet (CD) or continued on RBD. At 4 weeks of age, weanlings were given drug or placebo (0.1 mg/kg formulated in PBS (vehicle)) once a day subcutaneously for 2-3 weeks. Bodyweight and food consumption were measured twice weekly. Stool was collected at weaning, 6 weeks of age, and 8 weeks of age for calorimetry and microbiome. Oral FITC-dextran was used as a measurement of barrier function. At 6 weeks of age, mice were euthanized, and jejunal tissue was collected for morphology, immunohistochemistry, and for chamber analysis of transmucosal resistance and permeability.

GIPR = experiment: cell-based or functional assay
mouse GLP2R (mouse) = mouse GLP2R (mouse) (UniProt Q5IXF8); experiment: cell-based or functional assay
[2] = molecular target: cyno monkey GLP2R (cyno monkey) (UniProt G1E7B0); experiment: cell-based or functional assay
[3] = Pharmacokinetics of peptides in mice (plasma levels by GLP-2R cell based reporter assay); details: mouse, in vivo
human GLP-2R = molecular target: T1, human GLP-2R (human, UniProt O95838 1-553); experiment: cell-based or functional assay
T1 sequence (looked up): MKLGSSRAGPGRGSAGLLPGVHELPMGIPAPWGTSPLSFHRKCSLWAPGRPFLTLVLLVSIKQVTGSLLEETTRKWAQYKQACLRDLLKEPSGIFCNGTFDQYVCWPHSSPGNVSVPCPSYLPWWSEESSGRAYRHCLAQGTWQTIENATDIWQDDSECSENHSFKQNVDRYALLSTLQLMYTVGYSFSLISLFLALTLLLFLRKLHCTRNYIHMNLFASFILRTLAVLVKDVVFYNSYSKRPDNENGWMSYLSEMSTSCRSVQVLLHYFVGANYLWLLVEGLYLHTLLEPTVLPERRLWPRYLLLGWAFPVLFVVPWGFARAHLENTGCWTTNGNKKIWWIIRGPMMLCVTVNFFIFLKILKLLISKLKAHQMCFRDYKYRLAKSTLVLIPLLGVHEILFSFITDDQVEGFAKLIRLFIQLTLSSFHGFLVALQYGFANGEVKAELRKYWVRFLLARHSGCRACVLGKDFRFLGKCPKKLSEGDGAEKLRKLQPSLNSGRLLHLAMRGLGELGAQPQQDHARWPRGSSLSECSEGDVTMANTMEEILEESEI

[4] = molecular target: 168 GPCR targets (gpcrMAX Panel by DiscoverRx); experiment: cell-based or functional assay

mouse GLP2R (mouse), sequence (Q5IXF8 whole entry): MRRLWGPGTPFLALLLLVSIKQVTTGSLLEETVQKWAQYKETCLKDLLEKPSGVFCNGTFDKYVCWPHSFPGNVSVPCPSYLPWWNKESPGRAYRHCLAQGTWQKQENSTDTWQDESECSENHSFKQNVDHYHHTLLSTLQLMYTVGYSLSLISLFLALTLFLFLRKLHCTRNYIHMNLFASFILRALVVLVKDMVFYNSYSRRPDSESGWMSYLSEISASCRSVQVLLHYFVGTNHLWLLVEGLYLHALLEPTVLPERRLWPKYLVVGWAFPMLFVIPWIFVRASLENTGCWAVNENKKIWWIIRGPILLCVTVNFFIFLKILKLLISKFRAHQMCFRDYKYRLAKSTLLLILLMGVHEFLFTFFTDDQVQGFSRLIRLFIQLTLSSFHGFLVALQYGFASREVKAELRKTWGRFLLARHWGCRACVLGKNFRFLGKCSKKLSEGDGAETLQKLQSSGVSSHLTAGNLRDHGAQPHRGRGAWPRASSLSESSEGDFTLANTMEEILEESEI

CC[C@H](C)[C@H](NC(=O)[C@H](Cc1ccccc1)NC(=O)[C@H](CC(=O)O)NC(=O)[C@H](CCCNC(=N)N)NC(=O)[C@H](C)NC(=O)[C@H](C)NC(=O)[C@H](CC(C)C)NC(=O)[C@H](CC(N)=O)NC(=O)[C@H](CC(=O)O)NC(=O)[C@H](CC(C)C)NC(=O)[C@@H](NC(=O)[C@@H](NC(=O)[C@H](CC(N)=O)NC(=O)[C@H](CCSC)NC(=O)[C@H](CCC(=O)O)NC(=O)[C@H](CC(=O)O)NC(=O)[C@H](CO)NC(=O)[C@H](Cc1ccccc1)NC(=O)[C@H](CO)NC(=O)CNC(=O)[C@H](CC(=O)O)NC(=O)[C@H](C)NC(=O)[C@@H](N)Cc1c[nH]cn1)[C@@H](C)O)[C@@H](C)CC)C(=O)N[C@@H](CC(N)=O)C(=O)N[C@@H](Cc1c[nH]c2ccccc12)C(=O)N[C@@H](CC(C)C)C(=O)N[C@H](C(=O)N[C@@H](CCC(N)=O)C(=O)N[C@H](C(=O)N[C@@H](CCCCN)C(=O)N[C@H](C(=O)N[C@H](C(=O)N[C@@H](CC(=O)O)C(=O)O)[C@@H](C)O)[C@@H](C)CC)[C@@H](C)O)[C@@H](C)CC [GLP-2, reference compound]
length of the small intestine [1]: significant increase

GIP (ligand)
IC50 [nM] (665/615 ratio, free cAMP) (GIPR): 0.02 nM

Teduglutide (peptide)
IC50 [nM] (665/615 ratio, free cAMP) (mouse GLP2R (mouse)): 0.07 nM
EC50 [nM] (ratio of 665 to 615) [2]: 0.009 nM

CC[C@H](C)[C@@H]1NC(=O)[C@H](Cc2ccccc2)NC(=O)[C@H](CC(=O)O)NC(=O)[C@H](CCCNC(=N)N)NC(=O)[C@H](C)NC(=O)[C@H](C)NC(=O)[C@@H](NC(=O)[C@H](CC(N)=O)NC(=O)[C@H](CC(=O)O)NC(=O)[C@H](CC(C)C)NC(=O)[C@@H](NC(=O)[C@@H](NC(=O)[C@H](CC(N)=O)NC(=O)[C@H](CCSC)NC(=O)[C@H](CCC(=O)O)NC(=O)[C@H](CC(=O)O)NC(=O)[C@H](CO)NC(=O)[C@H](Cc2ccccc2)NC(=O)[C@H](CO)NC(=O)CNC(=O)[C@H](CC(=O)O)NC(=O)CNC(=O)[C@@H](N)Cc2c[nH]cn2)[C@@H](C)O)[C@@H](C)CC)CCCCNC(=O)CN(C(=O)CCNC(=O)CCOCCOCCNC(=O)CCOCCOCCNC(=O)CC[C@H](NC(=O)CCCCCCCCCCCCCCCCC(=O)O)C(=O)O)CC(=O)NCCCC[C@@H](C(=O)N[C@@H](Cc2c[nH]c3ccccc23)C(=O)N[C@@H](CC(C)C)C(=O)N[C@H](C(=O)N[C@@H](CCC(N)=O)C(=O)N[C@H](C(=O)N[C@@H](CCCCN)C(=O)N[C@H](C(=O)N[C@H](C(=O)N[C@@H](CC(=O)O)C(=O)N2CCC[C@H]2C(=O)N[C@@H](CO)C(=O)N[C@@H](CO)C(=O)NCC(=O)N[C@@H](C)C(=O)N2CCC[C@H]2C(=O)N2CCC[C@H]2C(=O)N2CCC[C@H]2C(=O)N[C@@H](CO)C(N)=O)[C@@H](C)O)[C@@H](C)CC)[C@@H](C)O)[C@@H](C)CC)NC1=O [Conjugate 17]
half-life ([3]; 10 nmol/kg, read-out: Mouse T½/h (converted)): 8.53 ± 0.044 h
clearance ([3]; CD1 female mice, 10 nmol/kg iv or sc, read-out: Mouse CL/(mL/h/kg) (converted)): 14.4 mL/h/kg

Apraglutide (peptide)
IC50 [nM] (665/615 ratio, free cAMP) (mouse GLP2R (mouse)): 0.04 nM

HGDGSFSDE[Nle][dF]TILDNKAARDFIKWLIQTKITDPSSGAPPPS (bridge 17-24; not fully specified (bridges); ends not checked) [Conjugate 12: GLP2-2G-10Nle-11f-1K-EX4 (SEQ ID NO. 11) with staple K5 at positions 17, 24]
GLP-2R - cAMP 0% FBS/nM (EC50, CRE-luciferase reporter) (human GLP-2R): 2.13 nM

HGDGSFSDE[Nle]ATA[Nle]DAKAARDFIKWLIQTKITDPSSGAPPPS (linker 17-24 via K5; reading uncertain)
GLP-2R - cAMP 0% FBS/nM (EC50, CRE-luciferase reporter) (human GLP-2R): 1.33 nM

HGDGSFSDE[Aib]NTILDNCAARDFICWLIQTKITDPSSGAPPPS (linker 17-24 via L5A; reading uncertain) [Conjugate 5: GLP2-2G-10Aib-1-EX4 (SEQ ID NO. 5) with staple L5A at positions 17, 24]
GLP-2R - cAMP 0% FBS/nM (EC50, CRE-luciferase reporter) (human GLP-2R): 8.71 nM

HGDGSFSDEM[dF]TILDNKAARDFIKWLIQTKITDPSSGAPPPS (linker 17-24 via K5; reading uncertain) [Conjugate 18: GLP2-2G-11f-1K-EX4 (SEQ ID NO. 17) with staple K5 at positions 17, 24]
GLP-2R - cAMP 0% FBS/nM (EC50, CRE-luciferase reporter) (human GLP-2R): 1.41 nM

HGDGSFSDK[Nle]NTILDKLAARDFINWLIQTKITDPSSGAPPPS (linker 9-16 via K5; reading uncertain) [Conjugate 24: GLP2-2G-10Nle-5K-EX4 (SEQ ID NO. 19) with staple K5 at positions 9, 16]
GLP-2R - cAMP 0% FBS/nM (EC50, CRE-luciferase reporter) (human GLP-2R): 8.36 nM

HGDGSFSDE[Nva]NTILDNCAARDFICWLIQTKITDPSSGAPPPS (linker 17-24 via L5A; reading uncertain) [Conjugate 6: GLP2-2G-10Nva-1-EX4 (SEQ ID NO. 6) with staple L5A at positions 17, 24]
GLP-2R - cAMP 0% FBS/nM (EC50, CRE-luciferase reporter) (human GLP-2R): 5.74 nM

HGDGSFSDEMNTILDNCAARDFICWLIQTKITDPSSGAPPPS (linker 17-24 via L5A; not fully specified; ends not checked) [Conjugate 1: GLP2-2G-1-EX4 (SEQ ID NO. 1) with staple L5A at positions 17, 24]
PathHunter beta-arrestin enzyme fragment complementation, agonist mode, % activity [4]: < 30 % activity
PathHunter beta-arrestin enzyme fragment complementation, antagonist mode, % inhibition [4]: < 35 % inhibition

HGDGSFSDEMNTILDNXAARDFIXWLIQTKITDPSSGAPPPS (Orn at 17 and 24; staple K5 attached at positions 17, 24 (ornithines)) [Conjugate 25: GLP2-2G-1Orn-EX4 (SEQ ID NO. 20) with staple K5 at positions 17, 24]
GLP-2R - cAMP 0% FBS/nM (EC50, CRE-luciferase reporter) (human GLP-2R): 2.11 nM

B1: Conjugate 11: GLP2-2G-10Nle-1K-EX4 (SEQ ID NO. 10) with staple K5 at positions 17, 24 (peptide)
peptide: HGDGSFSDELNTILDNKAARDFIKWLIQTKITDPSSGAPPPS
modifications: not fully specified; here or on the partner: Nle at 10; staple K5 (lactam) attached at positions 17, 24 (lysines)
PathHunter beta-arrestin enzyme fragment complementation, agonist mode, % activity [4]: < 30 % activity
PathHunter beta-arrestin enzyme fragment complementation, antagonist mode, % inhibition [4]: < 35 % inhibition

HGDGSFSDEVNTILDNCAARDFICWLIQTKITDPSSGAPPPS (linker 17-24 via L5A; reading uncertain) [Conjugate 7: GLP2-2G-10V-1-EX4 (SEQ ID NO. 7) with staple L5A at positions 17, 24]
GLP-2R - cAMP 0% FBS/nM (EC50, CRE-luciferase reporter) (human GLP-2R): 1.45 nM

HGDGSFSDEMCTILDNLCARDFINWLIQTKITDPSSGAPPPS (linker 11-18 via L5A; ends not checked) [Conjugate 10: GLP2-2G-6-EX4 (SEQ ID NO. 9) with staple L5A at positions 11, 18]
GLP-2R - cAMP 0% FBS/nM (EC50, CRE-luciferase reporter) (human GLP-2R): 2.09 nM
GLP-2R - cAMP 10% FBS/nM (EC50, CRE-luciferase reporter) (human GLP-2R): 102 nM

HGDGSFSDEMNTILDNKAARDFIKWLIQTKITDPSSGAPPPS (bridge 17-24; not fully specified (bridges); ends not checked) [Conjugate 17: GLP2-2G-1K-EX4 (SEQ ID NO. 16) with staple K5 at positions 17, 24]
GLP-2R - cAMP 0% FBS/nM (EC50, CRE-luciferase reporter) (human GLP-2R): 1.07 nM

HGDGSFSDEMNTILDNKAARDFIKWLIQTKITDPSSGAPPPS (bridge 17-24 via K1; ends not checked) [Conjugate 19: GLP2-2G-1K-EX4 (SEQ ID NO. 16) with staple K1 at positions 17, 24]
GLP-2R - cAMP 0% FBS/nM (EC50, CRE-luciferase reporter) (human GLP-2R): 0.15 nM

HGDGSFSDKMNTILDKLAARDFINWLIQTKITDPSSGAPPPS (bridge 9-16; not fully specified (bridges); ends not checked) [Conjugate 23: GLP2-2G-5K-EX4 (SEQ ID NO. 18) with staple K5 at positions 9, 16]
GLP-2R - cAMP 0% FBS/nM (EC50, CRE-luciferase reporter) (human GLP-2R): 1.25 nM

HGDGSFSDEMNTILDNKAARDFIKWLIQTKITDPSSGAPPPS (bridge 17-24 via A1; ends not checked) [Conjugate 20: GLP2-2G-1K-EX4 (SEQ ID NO. 16) with staple A1 at positions 17, 24]
GLP-2R - cAMP 0% FBS/nM (EC50, CRE-luciferase reporter) (human GLP-2R): 0.09 nM

HGDGSFSDELNTILDNCAARDFICWLIQTKITDPSSGAPPPS (linker 17-24 via L5A; reading uncertain) [Conjugate 3: GLP2-2G-10L-1-EX4 (SEQ ID NO. 3) with staple L5A at positions 17, 24]
GLP-2R - cAMP 0% FBS/nM (EC50, CRE-luciferase reporter) (human GLP-2R): 0.87 nM

HGDGSFSDE[Nle]NTA[Nle]DNKAARDFIKWLIQTKITDPSSGAPPPS (linker 17-24 via K5; reading uncertain) [Conjugate 14: GLP2-2G-10Nle-13A-14Nle-1K-EX4 (SEQ ID NO. 13) with staple K5 at positions 17, 24]
GLP-2R - cAMP 0% FBS/nM (EC50, CRE-luciferase reporter) (human GLP-2R): 2.68 nM

HGDGSFSDE[Nle]NSLLDNKAARDFIKWLIQTKITDPSSGAPPPS (bridge 17-24; not fully specified (bridges); ends not checked) [Conjugate 13: GLP2-2G-10Nle-12S-13L-1K-EX4 (SEQ ID NO. 12) with staple K5 at positions 17, 24]
GLP-2R - cAMP 0% FBS/nM (EC50, CRE-luciferase reporter) (human GLP-2R): 3.78 nM

HGDGSFSDE[Nle]NT[Nle][Nle]DNKAARDFIKWLIQTKITDPSSGAPPPS (linker 17-24 via K5; reading uncertain) [Conjugate 15: GLP2-2G-10Nle-13Nle-14Nle-1K-EX4 (SEQ ID NO. 14) with staple K5 at positions 17, 24]
GLP-2R - cAMP 0% FBS/nM (EC50, CRE-luciferase reporter) (human GLP-2R): 1.99 nM
